This data set can be described thus: protein stability index of a GFP-peptide fusion (GPS, HEK-293T) (PSI 1-6); higher = more stable.
Setting [1] is: treatment: DMSO, c terminus: a fixed tail appended.
Where [2] appears, read: treatment: MLN4924 1 uM, 8 h, c terminus: a fixed tail appended.
The mark [3] stands for this setting: treatment: DMSO, c terminus: native.
Setting [4] is: treatment: MLN4924 1 uM, 8 h, c terminus: native.

± gives the standard deviation.
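Further: 24-mer peptide tiles fused after GFP, lentivirally expressed, FACS-sorted into six equal bins by GFP/DsRed ratio, decoded by Illumina sequencing, PSI is the read-weighted mean bin number.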

Take KSSKYGEGHQAWIVGIVEKGNRTA [SEPHS2]: the protein stability index runs as follows: under setting [1], 2.56 ± 0.19; under setting [2], 2.56 ± 0.42.

Take KSSVYRRYNDFVVFQEMLLHKFPY [SNX8]: the protein stability index by setting is: under setting [1], 2.45 ± 0.65; under setting [2], 2.24 ± 0.39.

Regarding KSVLIPVYGVSKETFLSFLEYLYT [RHOBTB3], the protein stability index under setting [1] came out at 2.24 ± 0.38 and the protein stability index under setting [2] was determined as 2.22 ± 0.15.

Turning to KSVMLQIAATELEKEESRREAEKQ [TNNI2], the protein stability index is, setting by setting: under setting [1], 5.07 ± 0.092; under setting [2], 5.25 ± 0.26.

As for KVHTVPKPGKGADLSKPPCRKAKE [ATE1], the protein stability index is, setting by setting: under setting [1], 4.94 ± 0.24; under setting [2], 5.125 ± 0.046.

On to KVRQLERDNAELEKLIQERSQQQE [KRT34], for which the protein stability index reads like this: under setting [1], 5.17 ± 0.22; under setting [2], 5.28 ± 0.24.

Regarding KYSLLKLTALLEKYTPSNKHGFSW [DLC1], the protein stability index is 2.65 ± 0.42 under setting [1] and 2.6 ± 0.61 under setting [2].

As to LAGLTRPDVRPPLGRGLVGGQEEA [SEPHS2], the protein stability index by setting is: under setting [1], 4.86 ± 0.094; under setting [2], 4.92 ± 0.083.

On to LALGVSLLCNAITGITLLRVKFKS [PTGFR], for which the protein stability index turned out to be 2.88 ± 0.48 under setting [1] and 2.73 ± 0.37 under setting [2].

In the case of LATQSLTVETCRALGKLLPRETLC [LRRC45], the protein stability index by setting is: under setting [1], 2.44 ± 0.49; under setting [2], 2.48 ± 0.45.

In the case of LCWDPVQRVLFSGSSDHSVIMWDI [WDFY2], the protein stability index by setting is: under setting [1], 2.26 ± 0.34; under setting [2], 1.93 ± 0.45.

On to LDKLNFEAINFCRGLGSQASTVTE [ACSBG2], for which the protein stability index by setting is: under setting [1], 3.36 ± 0.5; under setting [2], 3.71 ± 0.24.

Consider LDKMLDPQVWREAATQVFFALGLG [SLC6A17], for which the protein stability index was determined as 2.52 ± 0.68 under setting [1] and 2.25 ± 0.28 under setting [2].

Take LDPDSKENAQIIYSLAEDTIQGVP [PCDHGA10]: the protein stability index was 4.64 ± 0.15 under setting [1] and 4.56 ± 0.23 under setting [2].

As for LEAEIATYRRLLEDGEDFNLGDAL [KRT18], the protein stability index under setting [1] is 4.41 ± 0.15 and the protein stability index under setting [2] was 4.53 ± 0.25.

As to LEAGADQEHKTDEMHTALMEACMD [ANKRD17], the protein stability index under setting [1] is 5.52 ± 0.37 and the protein stability index under setting [2] turned out to be 5.34 ± 0.28.

As to LEANADTSVEEESFGPQPISRLEQ [RAD51], the protein stability index runs as follows: under setting [1], 5.38 ± 0.2; under setting [2], 5.44 ± 0.18.

LEIELQSQLSMKASLENSLEETKG [KRT16]: the protein stability index runs as follows: under setting [1], 5.28 ± 0.066; under setting [2], 5.16 ± 0.17.

Consider LELHDYHDIIKHPMDLSTVKRKMD [BRD3], for which the protein stability index runs as follows: under setting [1], 4.05 ± 0.19; under setting [2], 3.98 ± 0.34.

With LFLGQGIQVSLYCQEWYARRHCPL [SOAT2], the protein stability index is 2.83 ± 0.46 under setting [1] and 2.57 ± 0.46 under setting [2].

Turning to LFVLELEWVLSTGQDKQFAWHCSE [WDFY2], the protein stability index worked out at 2.99 ± 0.34 under setting [1] and 2.77 ± 0.72 under setting [2].

For LFVTFLLIYMVTIMGNLLIIVTIM [OR4A15], the protein stability index stood at 3.06 ± 0.41 under setting [1] and 3.29 ± 0.53 under setting [2].

On to LGDRLNVEVDAAPAVDLNQVLNET [KRT33B], for which the protein stability index is, setting by setting: under setting [1], 4.93 ± 0.14; under setting [2], 4.96 ± 0.097.

As for LGIPKSTTSDIPHMLNQVESKVKD [FAM98B], the protein stability index runs as follows: under setting [1], 5.04 ± 0.27; under setting [2], 5.23 ± 0.11.

For the sequence LGLVGYYIFRVANHQKDLFRRTDG [DHCR7], the protein stability index turned out to be 2.45 ± 0.2 under setting [1] and 2.6 ± 0.31 under setting [2].

On to LGLYINFRHLYKQRRRRYGQKKKK [HACD3], for which the protein stability index turned out to be 2.37 ± 0.22 under setting [1] and 2.61 ± 0.34 under setting [2].

Take LGMYQKVTSYCRSATLVGFTVGSV [SLC19A2]: the protein stability index under setting [1] came to 2.74 ± 0.6 and the protein stability index under setting [2] is 2.73 ± 0.41.

Take LGNGNDKKEMNKSDLNTNNLLFKP [KMT2E]: the protein stability index runs as follows: under setting [1], 4.65 ± 0.25; under setting [2], 4.34 ± 0.32.

Regarding LGPSLEDLFDLCDRTFTLKTVLMI [CSNK1G1], the protein stability index worked out at 2.69 ± 0.82 under setting [1] and 2.56 ± 0.9 under setting [2].

LGVDTAETSYLEMAAGSEPESVEA [KMT2E]: the protein stability index is, setting by setting: under setting [1], 5.27 ± 0.32; under setting [2], 5.5 ± 0.42.

On to LHCWLNAFAEMLRFGDRMFYKDWW [SOAT1], for which the protein stability index stood at 2.97 ± 0.3 under setting [1] and 2.77 ± 0.6 under setting [2].

Turning to LHDIFENKTDVVLILELVSGGELF [DAPK3], the protein stability index reads like this: under setting [1], 1.87 ± 0.37; under setting [2], 2.39 ± 0.58.

In the case of LHEALLEYEAGRAGPGGGAERRRA [ESRRA], the protein stability index came out at 4.27 ± 0.34 under setting [1] and 4.82 ± 0.18 under setting [2].

As for LHYAAASDMDRNKTILGNAHDNSE [ANKRD44], the protein stability index by setting is: under setting [1], 4.76 ± 0.15; under setting [2], 4.9 ± 0.044.

Consider LIQNEYRNGGSLADAISENYRIMS [WEE1], for which the protein stability index runs as follows: under setting [1], 2.38 ± 0.31; under setting [2], 2.5 ± 0.48.

For the sequence LIRYICGVVHPSNEVLSSDILPRW [INTS3], the protein stability index by setting is: under setting [1], 2.66 ± 0.26; under setting [2], 2.56 ± 0.49.

For the sequence LISHVLEQNQEGDAAYRKALDLAR [AUH], the protein stability index was determined as 3.38 ± 0.55 under setting [1] and 3.09 ± 0.19 under setting [2].

For the sequence LISKLPYIHFFHTVLKQIAPEYFE [DENND6A], the protein stability index stood at 2.64 ± 0.28 under setting [1] and 2.37 ± 0.63 under setting [2].

Regarding LIVVTQSHLVIHNLFEGMIWFIVP [CDS2], the protein stability index turned out to be 3.06 ± 0.41 under setting [1] and 3.25 ± 0.59 under setting [2].

As for LKFHKLVNVTIHFRLKTINLQSLI [MCOLN1], the protein stability index is, setting by setting: under setting [1], 3.17 ± 0.37; under setting [2], 3.12 ± 0.31.

Consider LKNKCCPPPCKFGEGKLSKRLKHK [C22orf31], for which the protein stability index is 3.49 ± 0.21 under setting [1] and 3.74 ± 0.48 under setting [2].

LKPLLSPSSETTVTVELPEADRAG [LYSMD4]: the protein stability index is, setting by setting: under setting [1], 5.04 ± 0.23; under setting [2], 5.07 ± 0.28.

As for LKSAKDLPPDALIIEYRGKFMLRE [KMT2E], the protein stability index runs as follows: under setting [1], 2.15 ± 0.4; under setting [2], 2.38 ± 0.43.

Take LKVGGILVMPLEEKLTKITRTGPS [PCMTD2]: the protein stability index is 2.4 ± 0.21 under setting [1] and 2.16 ± 0.41 under setting [2].

As to LKVRYRERITILRGNHESRQITQV [PPP2CA], the protein stability index under setting [1] was determined as 2.37 ± 0.19 and the protein stability index under setting [2] amounted to 2.42 ± 0.32.

LLDKLAKENQDIRLLQAQLQAQKE [PBXIP1]: the protein stability index worked out at 4.37 ± 0.33 under setting [1] and 4.21 ± 0.27 under setting [2].

On to LLEEGGLVQVESVNLQVATYSKFQ [UFD1], for which the protein stability index was 2.85 ± 0.32 under setting [1] and 2.9 ± 0.31 under setting [2].

Take LLEERRPADSAQLLSLNSLLPESG [TFE3]: the protein stability index was 4.37 ± 0.42 under setting [1] and 4.54 ± 0.24 under setting [2].

As to LLKCVRESDPSDPNKDMVVQLIDD [SRPK2], the protein stability index is, setting by setting: under setting [1], 4.6 ± 0.41; under setting [2], 4.57 ± 0.079.

As to LLMTSGVVLCEGVKWLSFHSGYDF [CNOT7], the protein stability index under setting [1] was 3.33 ± 0.37 and the protein stability index under setting [2] came out at 2.9 ± 0.39.

In turn, LLRHGMDRLWRPSKVLSLQDLCCR [RAB40B] showed a protein stability index under setting [1] of 3.03 ± 0.09 and a protein stability index under setting [2] of 2.97 ± 0.25.

Regarding LLRMCSHGEGKINYYNFVRAFSN [EFHC1], the protein stability index was found to be 2.32 ± 0.66 under setting [3] and 2.08 ± 0.57 under setting [4].

Turning to LMPGVPPLMPGMPPVMPGMPPGLH [ZNF207], the protein stability index by setting is: under setting [1], 3.02 ± 0.33; under setting [2], 2.99 ± 0.32.

As for LMTCEMLNRRNGSLRIALSEHLKQ [EDNRA], the protein stability index is, setting by setting: under setting [1], 2.71 ± 0.17; under setting [2], 2.72 ± 0.26.

Turning to LNIVERYDPKENKWTRVASMSTRR [KLHL20], the protein stability index is, setting by setting: under setting [1], 3.31 ± 0.084; under setting [2], 3.39 ± 0.23.

On to LPHLVALTEQYTVTGLMEATQMMV [RHOBTB2], for which the protein stability index is 2.89 ± 0.67 under setting [1] and 2.86 ± 0.52 under setting [2].

On to LPMATVDIKNPEITTNRFYGPQVN [WASL], for which the protein stability index is 3.4 ± 0.75 under setting [1] and 3.54 ± 0.34 under setting [2].

Regarding LPRKRQSLRSSSSKLAQLTLEQIL [INTS3], the protein stability index is, setting by setting: under setting [1], 2.34 ± 0.19; under setting [2], 2.44 ± 0.12.

In turn, LPSHPLELSEKNFQLNQDKMNFST [POMP] returned a protein stability index under setting [1] of 3.84 ± 0.29 and a protein stability index under setting [2] of 3.78 ± 0.21.

On to LPVETLGPASRMDPESERALQAPH [PBXIP1], for which the protein stability index under setting [1] was determined as 4.58 ± 0.43 and the protein stability index under setting [2] came to 4.84 ± 0.33.

With LQAKALQLIVTARTTRGLDPLFGM [INTS4], the protein stability index was determined as 2.88 ± 0.6 under setting [1] and 2.59 ± 0.66 under setting [2].

For LQLLREENRALQQLLEQKQAYWAQ [CBY2], the protein stability index came out at 2.62 ± 0.18 under setting [1] and 2.94 ± 0.31 under setting [2].

For the sequence LQRLGELQSELAGVADFSATYLRC [INTS4], the protein stability index was 2.72 ± 0.22 under setting [1] and 2.93 ± 0.34 under setting [2].

Regarding LQSTYATPVDMWSVGCIFAEMFRR [CDK4], the protein stability index turned out to be 2.32 ± 0.42 under setting [1] and 2.37 ± 0.41 under setting [2].

As to LRDHADSNIVIMLVGNKSDLRHLR [RAB11A], the protein stability index reads like this: under setting [1], 2.36 ± 0.24; under setting [2], 2.18 ± 0.38.

For LREKLLEAEQSLRNLEDIHMSLEK [TEKT4], the protein stability index worked out at 3.03 ± 0.52 under setting [1] and 3.3 ± 0.63 under setting [2].

LRKAVLKNLYKLASQCCGVHVISL [PTGFR]: the protein stability index by setting is: under setting [1], 2.79 ± 0.5; under setting [2], 2.73 ± 0.99.

Consider LRQLRELEEQFALEAGGYQAGAAR [PRPH], for which the protein stability index runs as follows: under setting [1], 4.07 ± 0.3; under setting [2], 4.24 ± 0.084.

With LRSFEGLMGTIKSKVSGGKRAWP [TPD52L3], the protein stability index by setting is: under setting [3], 2.94 ± 0.91; under setting [4], 3.63 ± 0.26.

On to LSATIGSILRELDTSMDGTEPPQN [SERTAD3], for which the protein stability index by setting is: under setting [1], 4.1 ± 0.15; under setting [2], 4.26 ± 0.33.

For the sequence LSIQLQPKETQPFPKSEQVYLHFL [ZNF232], the protein stability index runs as follows: under setting [1], 2.4 ± 0.25; under setting [2], 2.52 ± 0.35.

LSLVLGNVNVTLLSKQAKFAYKDE [TMEM120A]: the protein stability index reads like this: under setting [1], 2.59 ± 0.53; under setting [2], 2.23 ± 0.28.
